Assay results as given in US20070243303, “Methods and Means for Regulating Gene Expression” (Friesland Brands B.V., published 2007).

Key:
CodY (native, in cell) [1] = target: T1, CodY (native, in cell) (Lactococcus lactis subsp. cremoris …, UniProt A2RHP2 A2RHP2:1-262); assay: cell_activity; conditions: 8-fold for prtM::lacZ; less than 2-fold in codY mutant; scale: fold repression
T1 sequence: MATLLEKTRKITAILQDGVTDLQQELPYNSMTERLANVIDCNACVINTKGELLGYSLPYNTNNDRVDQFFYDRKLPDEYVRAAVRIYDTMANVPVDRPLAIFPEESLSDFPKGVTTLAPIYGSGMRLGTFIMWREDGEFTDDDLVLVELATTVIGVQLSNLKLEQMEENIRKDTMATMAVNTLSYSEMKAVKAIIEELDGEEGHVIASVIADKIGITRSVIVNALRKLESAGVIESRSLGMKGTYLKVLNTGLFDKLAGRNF

CodY (native, in cell) [2] = target: T1, CodY (native, in cell); assay: cell_activity; lacZ reporter in L. lactis LL108
Source text: (§1) The fact that H6-CodY was unable to form a protein-DNA complex when a probe was used that lacks the upstream arm of this IR (probe 1 in FIG. 3) implies that this area might serve as an operator site for CodY on PoppD. To study this region in more detail, site directed mutations were introduced by PCR using combinations of oligonucleotide opp1 with oligonucleotides opp14 (WT), opp15(a), opp(15b) or opp2, respectively (FIG. 4A). The PCR products were ligated upstream of the promoterless lacZ reporter gene in pORI13 and introduced into L. lactis LL108. […] When the unchanged half-site was replaced by an unrelated sequence (an XbaI endonuclease site, present in opp2), repression was reduced approximately 30-fold (in cells growing exponentially in rich medium) and H6-CodY binding was completely abolished (as shown in FIG. 3).
(§2) FIG. 4D: Promoter activity of PoppD variants. L. lactis LL108 strains carrying the lacZ reporter plasmids were grown in GM17 medium. Cells were harvested in the exponential phase of growth and β-galactosidase activity was measured (solid bars). […] Open bars indicate a quantitative representation of the DNA binding assay shown in panel C. The relative binding affinity of H6-CodY for the PoppD variants was calculated by comparing the intensity of the shifted, H6-CodY bound complexes with the total radioactive signal in each lane in the presence of 100 ng protein.

CodY (H6-CodY) [3] = target: T2, CodY (H6-CodY) (Lactococcus lactis subsp. cremoris …, UniProt A2RHP2 A2RHP2:1-262); assay: EMSA; no binding at any protein amount; conditions: tags: N-terminal His6 (pNH6CodY, nisin-induced in L. lactis NZ9000, Ni-NTA); chain copies: multimer, dimer or tetramer by cross-linking (stated); label: 32P 5'-end
T2 sequence: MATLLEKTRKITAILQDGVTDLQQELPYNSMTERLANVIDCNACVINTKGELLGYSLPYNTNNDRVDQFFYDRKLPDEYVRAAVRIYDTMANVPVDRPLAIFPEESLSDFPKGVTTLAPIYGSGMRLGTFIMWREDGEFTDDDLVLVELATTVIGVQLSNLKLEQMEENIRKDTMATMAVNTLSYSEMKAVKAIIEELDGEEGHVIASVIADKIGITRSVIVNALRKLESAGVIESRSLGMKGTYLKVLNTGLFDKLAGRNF
Protocol: BSA (1 μg) and poly(dI-dC) (Amersham Pharmacia Biotech) were added to the reaction mixtures in order to reduce non-specific interactions. After incubation for 15 min at 30° C., samples were loaded onto a 4% polyacrylamide gel. Electrophoresis was performed in the Protean II Minigel System (Bio Rad Laboratories B. V., Veenendaal, The Netherlands) using a gradient (0.5× to 2×) of TAE buffer (Sambrook, Fritsch, and Maniatis, 1989) at 150 V for 1.5 h. Gels were dried and used for autoradiography at −80° C. using Kodak XAR-5 films and intensifying screens.
The upstream oppD region contains a small sequence that is inversely repeated with a spacing of 9 base pairs in between (FIG. 1). This region of dyad symmetry is located just upstream of the −35 promoter sequence. To determine whether this region is important for the interaction with CodY, a stepwise deletion analysis of the oppD upstream region was performed. Radioactively labeled deletion fragments of the region, obtained by PCR, were incubated with H6-CodY. […]
Different parts of the oppD promoter region were amplified by PCR (panel A), radioactively labelled and incubated with no (lanes 1), 20 ng (lanes 2) or 200 ng (lanes 3) of His6-CodY protein, respectively (panel B). […] Cells were harvested in the exponential phase of growth and β-galactosidase activity was measured (solid bars). […]

CodY (H6-CodY) [4] = target: T2, CodY (H6-CodY); assay: EMSA; 20 or 200 ng H6-CodY; conditions: tags: N-terminal His6 (pNH6CodY, nisin-induced in L. lactis NZ9000, Ni-NTA); chain copies: multimer, dimer or tetramer by cross-linking (stated); label: 32P 5'-end
Protocol: (§3) Gel retardation experiments were carried out essentially as described by Ebbole and Zalkin (Ebbole et al., 1989). Purified PCR products (2 μg) were end-labelled with polynucleotide kinase (Amersham Pharmacia Biotech) for 1 h at 37° C. using 30 μCi [γ-³²P]-ATP (Amersham Pharmacia Biotech) in a volume of 20 μl. Reactions were stopped by incubating the mixtures for 10 min at 70° C. Binding studies were carried out in 20 μl reaction volumes containing 20 mM Tris-HCl (pH 8.0), 8.7% (v/v) glycerol, 1 mM EDTA (pH 8.0), 5 mM MgCl₂, 100 mM KCL, 0.5 mM DTT, labelled DNA fragment (3000 cpm), and purified His6-CodY protein (50-400 ng). BSA (1 μg) and poly(dI-dC) (Amersham Pharmacia Biotech) were added to the reaction mixtures in order to reduce non-specific interactions. After incubation for 15 min at 30° C., samples were loaded onto a 4% polyacrylamide gel. Electrophoresis was performed in the Protean II Minigel System (Bio Rad Laboratories B. V., Veenendaal, The Netherlands) using a gradient (0.5× to 2×) of TAE buffer (Sambrook, Fritsch, and Maniatis, 1989) at 150 V for 1.5 h. Gels were dried and used for autoradiography at −80° C. using Kodak XAR-5 films and intensifying screens.
The upstream oppD region contains a small sequence that is inversely repeated with a spacing of 9 base pairs in between (FIG. 1). This region of dyad symmetry is located just upstream of the −35 promoter sequence. […]

CodY (H6-CodY) [5] = target: T2, CodY (H6-CodY); assay: EMSA; multiple retarded bands, four with 10-100 ng; 5 mM MgCl2, 100 mM KCl, pH 8.0, 30 C; Ile (0.6 or 2.5 mM) stimulates, Val/Leu 0.6 mM reduce shift and 2.5 mM give; conditions: tags: N-terminal His6 (pNH6CodY, nisin-induced in L. lactis NZ9000, Ni-NTA); chain copies: multimer, dimer or tetramer by cross-linking (stated); label: 32P 5'-end
Protocol: as §3, with “Binding studies were carried out in 20 μl reaction volumes containing 20 mM Tris-HCl (pH 8.0), 8.7% (v/v) glycerol, 1 mM EDTA (pH 8.0), 5 mM MgCl₂, 100 mM KCL, 0.5 mM DTT, labelled DNA fragment (3000 cpm), and purified His6-CodY protein (50-400 ng).” left out
In order to examine whether L. lactis CodY directly interacts with upstream DNA sequences of its main target known so far, oppD, in vitro DNA binding studies were performed. For this purpose, histidine-tagged CodY was overexpressed using the nisin inducible gene expression system (Kuipers et al., 1998) and subsequently purified to apparent homogeneity. A radioactively labeled PCR fragment spanning the oppD upstream region (FIG. 1) was used as a probe. […]

CodY (H6-CodY) [6] = target: T2, CodY (H6-CodY); assay: EMSA; affinity order WT > opp15(a) > opp15(b); conditions: tags: N-terminal His6 (pNH6CodY, nisin-induced in L. lactis NZ9000, Ni-NTA); chain copies: multimer, dimer or tetramer by cross-linking (stated); label: 32P 5'-end
Source text: as §1, §2

Molecule: prtP/prtM intergenic region BGMN1-5 (330 bp)
- activity (CodY (native, in cell) [1]): 6

B1: opp15(b) mutant oppD fragment (154 bp) (dsDNA)
DNA 1: AACTGCAGCGTACTGTGCCGAAAATTCATGAACATACC
DNA 2: GGTATGTTCATGAATTTTCGGCACAGTACGCTGCAGTT
- activity (CodY (native, in cell) [2]): > 20 fold derepression vs WT

B2: oppD probe 1 / opp2 (160 bp, upstream arm removed) (dsDNA)
DNA 1: AACTGCAGGAAAATTCATGAACATACC
DNA 2: GGTATGTTCATGAATTTTCCTGCAGTT
- binding result (CodY (H6-CodY) [3]): no binding

B3: oppD probe 2 (-111 to +75) (dsDNA)
DNA 1: ATGTTCAGAAAATTCATGAACAT
DNA 2: ATGTTCATGAATTTTCTGAACAT
- binding result (CodY (H6-CodY) [4]): binds

B4: opp15(a) mutant oppD fragment (154 bp) (dsDNA)
DNA 1: AACTGCAGCGTAATATTTAGAAAATTCATGAACATACC
DNA 2: GGTATGTTCATGAATTTTCTAAATATTACGCTGCAGTT
- activity (CodY (native, in cell) [2]): ~7 fold derepression vs WT

B5: oppD promoter fragment opp162 (probe 3, opp1-opp3 PCR) (dsDNA)
DNA 1: ATGTTCAGAAAATTCATGAACAT
DNA 2: ATGTTCATGAATTTTCTGAACAT
- binding result (CodY (H6-CodY) [5]): binds

B6: opp14 WT oppD fragment (154 bp) (dsDNA)
DNA 1: ATGTTCAGAAAATTCATGAACAT
DNA 2: ATGTTCATGAATTTTCTGAACAT
- binding result (CodY (H6-CodY) [6]): binds
